Paper PMC4807281, “Glutathionylation of the Bacterial Hsp70 Chaperone DnaK Provides a Link between Oxidative Stress and the Heat Shock Response*” (The Journal of Biological Chemistry, 2016)
No end group written: not given here. *: point of attachment. FITC = O=C1OC2(c3ccc(O)cc3Oc3cc(O)ccc32)c2ccc(NC(=S)*)cc21

How the values were obtained:
DnaK, untreated control [1] = biological target: T1, DnaK, untreated control (E. coli, UniProt P0A6Y8 1-638); test: fluorescence polarisation; steady state; 20 nM FITC-…, increasing concentrations of DnaK, Buffer B, room temperature; ATP state; conditions: both partners purified
DnaK, untreated control [2] = biological target: T1, DnaK, untreated control; test: fluorescence polarisation; steady state; 20 nM FITC-…, increasing concentrations of DnaK, 60 min incubation, Buffer B (50 mM Tris-HCl pH 7.5, 100 mM KCl, 5 mM MgCl2), room temperature; apo or ADP state; single site binding model; conditions: both partners purified
[3] = biological target: T2, DnaK, glutathionylated at Cys-15 (E. coli, UniProt P0A6Y8 1-638, S-glutathionylated cysteine at Cys-15); test: as above; conditions: both partners purified
T2 construct: DnaK (bacterial Hsp70), E. coli, gene dnaK cloned from genomic DNA of E. coli C41 cells; primers from the start to the stop codon; the single cysteine Cys-15 carries glutathione; Modification reported as complete by Alexa Fluor 350 staining and mass spectrometry; also called glutathionylated DnaK; not shown: His6, N-terminal, cleaved; Smt3, N-terminal, cleaved

DnaK, deglutathionylated [4] = biological target: T3, DnaK, deglutathionylated (E. coli, UniProt P0A6Y8 1-638); test: as above; conditions: both partners purified
T3 construct: DnaK (bacterial Hsp70), E. coli, gene dnaK cloned from genomic DNA of E. coli C41 cells; primers from the start to the stop codon; also called deglutathionylated DnaK; not shown: His6, N-terminal, cleaved; Smt3, N-terminal, cleaved

DnaK, untreated control [5] = biological target: T1, DnaK, untreated control; test: pull-down; 2 μM His6-DnaJ, 5 μM His6-GrpE or 2 μM His6-Smt3-σ^32 with 20 μM DnaK, Buffer B, 1 mM ADP, 8 °C, 60 min; Ni-Sepharose HP; wash 300 mM KCl, 40 mM imidazole; elution 300 mM imidazole; SDS-PAGE, Coomassie; conditions: both partners purified
[6] = biological target: T2, DnaK, glutathionylated at Cys-15; test: as above; conditions: both partners purified
DnaK, deglutathionylated [7] = biological target: T3, DnaK, deglutathionylated; test: as above; conditions: both partners purified
DnaK, untreated control [8] = biological target: T1, DnaK, untreated control; test: cell-based or functional assay
[9] = biological target: T2, DnaK, glutathionylated at Cys-15; test: cell-based or functional assay

T2 sequence (P0A6Y8 whole entry): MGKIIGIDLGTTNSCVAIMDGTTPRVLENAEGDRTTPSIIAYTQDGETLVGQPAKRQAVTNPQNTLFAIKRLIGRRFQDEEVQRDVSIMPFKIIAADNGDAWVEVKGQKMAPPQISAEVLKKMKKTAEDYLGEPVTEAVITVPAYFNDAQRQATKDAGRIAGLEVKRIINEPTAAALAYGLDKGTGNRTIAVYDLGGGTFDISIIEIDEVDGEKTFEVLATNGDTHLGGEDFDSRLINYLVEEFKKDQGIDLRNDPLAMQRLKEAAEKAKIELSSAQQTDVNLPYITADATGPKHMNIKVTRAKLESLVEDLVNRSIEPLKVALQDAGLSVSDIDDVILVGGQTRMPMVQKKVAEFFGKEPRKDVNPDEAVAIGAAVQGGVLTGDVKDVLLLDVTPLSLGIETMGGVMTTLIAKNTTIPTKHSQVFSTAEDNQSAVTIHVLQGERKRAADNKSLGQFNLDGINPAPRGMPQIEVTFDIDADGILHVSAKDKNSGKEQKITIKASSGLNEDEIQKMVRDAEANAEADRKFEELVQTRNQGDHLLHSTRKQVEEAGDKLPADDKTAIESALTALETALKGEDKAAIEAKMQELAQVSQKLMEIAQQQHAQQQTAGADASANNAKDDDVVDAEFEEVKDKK
T3 sequence (P0A6Y8 whole entry): as above
T1 sequence (P0A6Y8 whole entry): as above

binding result (DnaK, untreated control [5])	binding result [6]	binding result (DnaK, deglutathionylated [7])	Binder	further results
binds	binds	binds	His6-GrpE (natural protein, E. coli, UniProt P09372 1-197, looked up, GrpE (nucleotide exchange factor of DnaK), E. coli, gene grpE cloned from genomic DNA of E. coli C41 cells; primers from the start to the stop codon; Uncleavable His6 tag from the mini pRSETa plasmid; not shown: His6, N-terminal, kept) MSSKEQKTPEGQAPEEIIMDQHEEIEAVEPEASAEQVDPRDEKVANLEAQLAEAQTRERDGILRVKAEMENLRRRTELDIEKAHKFALEKFINELLPVIDSLDRALEVADKANPDMSAMVEGIELTLKSMLDVVRKFGVEVIAETNVPLDPNVHQAIAMVESDDVAPGNVLGIMQKGYTLNGRTIRAAMVTVAKAKA	–
binds	binds	binds	His6-Smt3-σ^32 (natural protein, E. coli, UniProt P0AGB3 1-284, looked up, σ^32 subunit of RNA polymerase (heat shock sigma factor), E. coli, gene rpoH cloned from genomic DNA of E. coli C41 cells; primers from the start to the stop codon; The His6-Smt3 tag (pET28a-SMT3) was not cleaved from σ^32; order of the tags from the printed label; also called heat shock transcription factor σ^32; not shown: His6, N-terminal, kept; Smt3, N-terminal, kept) MTDKMQSLALAPVGNLDSYIRAANAWPMLSADEERALAEKLHYHGDLEAAKTLILSHLRFVVHIARNYAGYGLPQADLIQEGNIGLMKAVRRFNPEVGVRLVSFAVHWIKAEIHEYVLRNWRIVKVATTKAQRKLFFNLRKTKQRLGWFNQDEVEMVARELGVTSKDVREMESRMAAQDMTFDLSSDDDSDSQPMAPVLYLQDKSSNFADGIEDDNWEEQAANRLTDAMQGLDERSQDIIRARWLDEDNKSTLQELADRYGVSAERVRQLEKNAMKKLRAAIEA	–

The next lines start with the binder.

Binder	binding result (DnaK, untreated control [5])	binding result [6]	binding result (DnaK, deglutathionylated [7])	further results
{FITC}-ALLLSAPRR (also called FAR) [FITC-ALLLSAPRR peptide]	–	–	–	Kd (DnaK, untreated control [1]): ≥ 10000 nM; Kd (DnaK, untreated control [2]): 200 to 500 nM; Kd [3]: 4000 to 6000 nM; Kd (DnaK, deglutathionylated [4]): 200 to 500 nM
His6-DnaJ (natural protein, E. coli, UniProt P08622 1-376, looked up) MAKQDYYEILGVSKTAEEREIRKAYKRLAMKYHPDRNQGDKEAEAKFKEIKEAYEVLTDSQKRAAYDQYGHAAFEQGGMGGGGFGGGADFSDIFGDVFGDIFGGGRGRQRAARGADLRYNMELTLEEAVRGVTKEIRIPTLEECDVCHGSGAKPGTQPQTCPTCHGSGQVQMRQGFFAVQQTCPHCQGRGTLIKDPCNKCHGHGRVERSKTLSVKIPAGVDTGDRIRLAGEGEAGEHGAPAGDLYVQVQVKQHPIFEREGNNLYCEVPINFAMAALGGEIEVPTLDGRVKLKVPGETQTGKLFRMRGKGVKSVRGGAQGDLLCRVVVETPVGLNERQKQLLQELQESFGGPTGEHNSPRSKSFFDGVKKFFDDLTR	–	–	–	acceleration of ATP turnover of DnaK by DnaJ, malachite green ATPase assay, DnaJ to DnaK ratio 2:1 (DnaK, untreated control [8]): 6 fold; acceleration of ATP turnover of DnaK by DnaJ, malachite green ATPase assay, DnaJ to DnaK ratio 2:1 [9]: 2 fold
